# Laboratory results published in the supplement of paper PMC9170038.
# Tested on: MS2 coat protein
# Assay: apparent KD of MS2 coat protein; designed switch direction (-1 OFF switch, 1 ON switch): 1; higher = weaker reporter binding
# Summary of the method: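 For each design, the apparent KD is the median over clusters of curves fitted to normalised cluster fluorescence. Clusters held RNA switches with common flanks, transcribed on Illumina chips by stalled E. coli RNA polymerase. These were titrated with SNAP-549-labelled MS2 coat protein, doubling from 0.7 or 1.5 nM to 3 µM, without input, with 200 uM small-molecule ligand, or with an oligonucleotide input.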
# [1] = Eterna round: R95, input ligand: FMN 200 uM
# [2] = Eterna round: R95, input ligand: microRNA oligo, concentration not stated
# [3] = Eterna round: R95, input ligand: none
# [4] = input ligand: microRNA oligo, concentration not stated
Sequence,apparent KD of MS2 coat protein [1] [nM],apparent KD of MS2 coat protein [2] [nM],apparent KD of MS2 coat protein [3] [nM],apparent KD of MS2 coat protein (input ligand: FMN 200 uM) [nM],apparent KD of MS2 coat protein [4] [nM],apparent KD of MS2 coat protein (input ligand: none) [nM]
UACAAUCUAUCUGAGGAUAUCAUGAUUGUAACAUGAGGAUCACCCAUGUGCAGGAAAACUGCAUAUGAGAAGGCAGAUAGAUUGU [salish99_ss2_r3_071] (puzzle: Same State 2),113,78,708,–,–,–
"UACAUGAGGAUCACCCAUGUAGUCCAUGCACCGGACCGAAGCGAGGAUAUGGUCUGCAUCGGUGGCCAGAAGGCGCUUCCAGAA [Eternabot solution 26] (Eterna round: R96, puzzle: Same State NG 3)",–,–,–,24.7,21.3,46.7
UAGACAAGCUUUAUGUUCUUCCUUUUCCUACAUGAGGAUCACCCAUGUAGUCUGUCGAUUGAGAGAGUAGUUGAGAA [JR_SHM208A_Sub024] (puzzle: Sensor for hsa-mir-208a),17.8,16.5,18.2,–,–,–
UAGAGAGGAAGCGAGGAUAUCGUGGGAGGAACAUGAGGAUCACCCAUGUGUGAUGUUGAGAGGGACGAGAAGGCGCUGGAAAUUA [JR_SS2_Sub081] (puzzle: Same State 2),99.1,126,174,–,–,–
UAGAGAGGAAGCGAGGAUAUCGUGUUAGGUACAUGAGGAUCACCCAUGUUGUAGGUAGAGGUAGGCGAGAAGGCGCAGGAGAGGG [JR_SS2_Sub093] (puzzle: Same State 2),56.3,47.1,83.8,–,–,–
UAGAGAGGAAGCGAGGAUAUCGUGUUAGGUACAUGAGGAUCACCCAUGUUUUAAGUAGAGAUAGGCGAGAAGGCGCAGGAGAAAA [JR_SS2_Sub088] (puzzle: Same State 2),28.6,26.7,30.2,–,–,–
"UAGAUUAGAAGUUAACAUGAGGAUCACCCAUGUAUUGGAACAGAGGAUAUGCAUGUUUGAUAGUAGCAGAAGGCUGAAGGUGGA [JR_SSNG3_Sub025] (Eterna round: R96, puzzle: Same State NG 3)",–,–,–,–,68.4,–
"UAGCUCGUGUGAGGAUAUGCCGCCGUUUCGGCUGCAGAAGGUGCUACGUUACAUGAGGAUCACCCAUGUCUCUGUUGUUUCGUC [salish99_SSNG1_r04_955] (Eterna round: R96, puzzle: Same State NG 1)",–,–,–,–,23.9,–
UAGUACAAGCUUUUUGCUUGUCUUAUUUAACAUGAGGAUCACCCAUGUAAGUUGAAAGUUAGAGAGUGCAGGUUGAA [JR_SHM208A_Sub051] (puzzle: Sensor for hsa-mir-208a),16.8,21.9,17.1,–,–,–
UAGUACAUGCUUUUUGUCCGUCUUAGAUAACAUGAGGAUCACCCAUGUAAGGUGAAAGUUAUAUAGUUUAGGAAGAU [JR_SHM208A_Sub056] (puzzle: Sensor for hsa-mir-208a),309,424,331,–,–,–
UAGUACAUGCUUUUUGUCUGUCUUAGAUCACAUGAGGAUCACCCAUGUUUGGUGAAAGUUAUUUUGUUUAUGACUAU [JR_SHM208A_Sub060] (puzzle: Sensor for hsa-mir-208a),257,194,430,–,–,–
"UAGUAUUAACGAGGAUAUAAUAUGUUCAAUUUUUUAUAUUGUUUACAUGAGGAUCACCCAUGUUAUUAGAAGGCGUAUGGGAUU [JR_SSNG2_Sub082] (Eterna round: R96, puzzle: Same State NG 2)",–,–,–,–,50.9,–
"UAGUGCAUUAGAGGAUAUUCUUACGACACGAGUAAGACAUGAGGAUCACCCAUGUCGUGACAUGGGAAGAAGGCUGAUGUGCUA [Omei SS(NG)2 Bv6] (Eterna round: R96, puzzle: Same State NG 2)",–,–,–,12,27.1,35.8
UAGUGCUGUUGAGAGGAUAUGCGGCGACGGACAUGAGGAUCACCCAUGUUAGCGACAGCGUUGCGGCAGAAGGCUCUGCCCGCUA [Soteed Omei mod 52] (puzzle: Same State 2),13.1,27.4,33.3,–,–,–
"UAUCCAUAGAUAGGAUAUUAGAGAACAUGAGGAUCACCCAUGUUUGGCUUGGUUUUAAGCCAAUCUAAGAAGGAUCUUGAUGAA [SameState NG2 #10] (Eterna round: R96, puzzle: Same State NG 2)",–,–,–,22.1,66.5,72.1
"UAUGAAUUGCAAGGAUAUUGAUAACAUGAGGAUCACCCAUGUAAUUGAUCGAGUUAGAUCAGUUACAAGAAGGUGCUAUUGAUU [JR_SSNG2_Sub036] (Eterna round: R96, puzzle: Same State NG 2)",–,–,–,534,24.5,90.7
"UAUUCAUUCAGAGGAUAUUGUUUAUCUCUAUUUCAAGAAGGCUGAUUUUACUACUUACUUAUGAAACAUGAGGAUCACCCAUGU [JR_SSNG1_Sub020] (Eterna round: R96, puzzle: Same State NG 1)",–,–,–,–,18.7,–
"UAUUUAAUCAUAGGAUAUAGUGUGUAAUUUGGACUAGAAGGAUGUAACAUGAGGAUCACCCAUGUGGUAAAUGGGAUACAUUCC [JR_SSNG1_Sub099] (Eterna round: R96, puzzle: Same State NG 1)",–,–,–,–,91.9,–
"UCAGUCAUGUAAGGAUAUGCAGCCGAAACGGCUGCAGAAGGUACUAUAAUUACAUGAGGAUCACCCAUGUUAUAAAUAAAAUAU [Mat - Same State NG 1 - JL mod - D66] (Eterna round: R96, puzzle: Same State NG 1)",–,–,–,23.1,43,62.6
UCGGGCUCUGCUCGUCUUGAGUUGCUCCCACAUGAGGAUCACCCAUGUAGUGUGCCUAUCAGCGCGCGGGUGACUUU [Riesonso] (puzzle: Sensor for hsa-mir-208a),328,133,350,–,–,–
"UCUCGGGUCGUAGGAUAUGUAGGAUAUGUACAUGAGGAUCACCCAUGUCUACCAGAGACAGAAGGACAGAAGGACGAGCCGAGC [pwkr ssNG2 2FMN 1F5s.7] (Eterna round: R96, puzzle: Same State NG 2)",–,–,–,19.5,19,36.3
"UCUUGGUUUUUGCUCGUUUUUUGUGUUGAACAUGAGGAUCACCCAUGUAUUGUACAAUCCGGUUUGAUGAUGGUCCA [JMF 47] (Eterna round: R96, puzzle: Sensor for hsa-mir-208a)",–,–,–,125,55.5,115
UCUUGGUUUUUGCUCGUUUUUUGUGUUGAACAUGAGGAUCACCCAUGUAUUGUACAAUCCGGUUUGAUGAUGGUCCA [JMF 47] (puzzle: Sensor for hsa-mir-208a),81.7,58.3,92.3,–,–,–
"UGAACCUUCACAGGAUAUCAUGCGAAAAUUGCGUGAGAAGGGUGGAUGUGGUGUUCAUAGUUGCACAUGAGGAUCACCCAUGUA [SameState NG1 #51] (Eterna round: R96, puzzle: Same State NG 1)",–,–,–,115,124,237
